Reference: the supplement of paper PMC9876800

Tested on: peptide library, one residue held at a place counted from the S/T acceptor
Test: relative phosphorylation of the sub-library (ratio to the mean residue at this position); higher = residue favoured
Conditions: human
Method in brief: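 Purified recombinant kinases, either human or orthologue constructs, were incubated in 384-well plates with biotinylated degenerate peptide sub-libraries. Each sub-library fixed one residue at one position around a central Ser/Thr. Peptides at 50 μM and 50 μM ATP spiked with γ-32P-ATP were used for 90 min under kinase-specific conditions, and spots on streptavidin membranes were phosphorimaged and quantified by densitometry. Relative sub-library phosphorylation is expressed as a ratio to the mean residue at that position.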

CDK16, construct: aa107-end, sequence (Q00536 107-496, looked up): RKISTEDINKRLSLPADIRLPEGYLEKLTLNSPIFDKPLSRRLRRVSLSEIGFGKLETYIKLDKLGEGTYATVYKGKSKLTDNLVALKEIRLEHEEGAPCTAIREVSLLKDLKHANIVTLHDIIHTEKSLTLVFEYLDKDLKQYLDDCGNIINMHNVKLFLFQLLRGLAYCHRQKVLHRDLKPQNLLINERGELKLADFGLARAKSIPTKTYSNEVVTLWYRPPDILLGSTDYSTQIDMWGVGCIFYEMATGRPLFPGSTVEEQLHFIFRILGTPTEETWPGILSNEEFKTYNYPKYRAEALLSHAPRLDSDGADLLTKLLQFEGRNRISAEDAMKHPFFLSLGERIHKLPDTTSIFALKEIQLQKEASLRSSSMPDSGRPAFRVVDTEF
MYO3B, construct: aa1-326, sequence (Q8WXR4 1-326, looked up): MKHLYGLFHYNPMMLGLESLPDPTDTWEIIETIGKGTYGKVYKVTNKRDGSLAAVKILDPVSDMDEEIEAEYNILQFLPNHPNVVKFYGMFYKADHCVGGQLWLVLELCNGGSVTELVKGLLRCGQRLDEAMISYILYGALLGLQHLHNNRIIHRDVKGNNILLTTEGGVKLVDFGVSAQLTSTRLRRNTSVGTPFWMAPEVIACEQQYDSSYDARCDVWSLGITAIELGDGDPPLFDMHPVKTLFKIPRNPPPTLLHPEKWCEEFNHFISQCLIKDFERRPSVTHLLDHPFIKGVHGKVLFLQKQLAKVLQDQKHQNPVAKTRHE
CAMK2G, construct: aa24-334, sequence (Q13555 24-334, looked up): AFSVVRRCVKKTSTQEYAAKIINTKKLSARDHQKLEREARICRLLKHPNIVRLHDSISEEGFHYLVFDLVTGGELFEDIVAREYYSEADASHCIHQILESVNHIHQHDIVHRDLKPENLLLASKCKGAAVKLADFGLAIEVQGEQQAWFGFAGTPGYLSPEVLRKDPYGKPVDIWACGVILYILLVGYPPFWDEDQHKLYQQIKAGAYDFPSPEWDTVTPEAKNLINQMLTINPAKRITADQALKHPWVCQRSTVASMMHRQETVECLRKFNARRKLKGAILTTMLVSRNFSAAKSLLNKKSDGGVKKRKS
MAPK3, construct: Full length, sequence (P27361 whole entry, looked up): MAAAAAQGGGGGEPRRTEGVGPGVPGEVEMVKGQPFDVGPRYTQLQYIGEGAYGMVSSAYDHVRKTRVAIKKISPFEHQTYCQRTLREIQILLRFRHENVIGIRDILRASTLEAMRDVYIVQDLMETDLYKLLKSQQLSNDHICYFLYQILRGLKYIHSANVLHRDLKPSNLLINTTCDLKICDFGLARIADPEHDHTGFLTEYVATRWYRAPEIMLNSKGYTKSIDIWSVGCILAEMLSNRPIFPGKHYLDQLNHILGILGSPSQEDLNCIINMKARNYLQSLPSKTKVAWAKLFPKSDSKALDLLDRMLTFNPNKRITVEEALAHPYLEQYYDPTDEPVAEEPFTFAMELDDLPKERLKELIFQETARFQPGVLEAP

MAPK3, construct: Full length (from UniProt P27361)
relative phosphorylation
Conditions | at +1 | at +2 | at +3 | at +4 | at -1 | at -2 | at -3 | at -4 | at -5
A fixed | 1.21 | 1.07 | 1.04 | 0.886 | 0.999 | 1.2 | 1.23 | 1.09 | 1.06
D fixed | 0.0833 | 0.582 | 0.614 | 0.81 | 0.5 | 0.407 | 0.989 | 1.19 | 1.31
E fixed | 0.0773 | 0.244 | 0.706 | 0.732 | 0.509 | 0.454 | 1.27 | 1.35 | 1.2
F fixed | 0.372 | 1.1 | 1.15 | 1.22 | 0.802 | 0.577 | 0.808 | 0.946 | 1.09
G fixed | 0.947 | 1.34 | 1.13 | 1.02 | 1 | 0.724 | 1.32 | 1.25 | 1.25
H fixed | 0.217 | 1.26 | 1.11 | 1.07 | 0.975 | 0.461 | 0.949 | 0.914 | 1.11
I fixed | 0.292 | 0.775 | 0.878 | 0.943 | 0.67 | 1.18 | 0.792 | 0.82 | 0.724
K fixed | 0.179 | 1.58 | 0.699 | 1.31 | 1.35 | 0.345 | 0.663 | 0.874 | 0.904
L fixed | 0.398 | 1.11 | 1.08 | 1.02 | 1.31 | 1.42 | 0.917 | 0.958 | 0.903
M fixed | 0.276 | 0.987 | 0.971 | 1.09 | 1.39 | 1.29 | 1.08 | 1.09 | 0.907
N fixed | 0.155 | 1.26 | 0.786 | 0.931 | 0.785 | 0.613 | 0.989 | 0.855 | 0.93
P fixed | 11.6 | 0.628 | 1.56 | 0.896 | 1.26 | 4.97 | 1.74 | 1.18 | 1.11
Q fixed | 0.159 | 0.788 | 0.736 | 1.01 | 1.1 | 0.82 | 1.05 | 0.942 | 0.975
R fixed | 0.223 | 2.13 | 0.979 | 1.1 | 1.85 | 0.566 | 0.907 | 0.905 | 0.841
V fixed | 0.291 | 0.711 | 0.879 | 0.903 | 0.746 | 1.22 | 0.837 | 0.777 | 0.783
W fixed | 0.261 | 0.681 | 1.55 | 1.12 | 0.654 | 0.386 | 0.659 | 0.913 | 0.781
Y fixed | 0.211 | 0.744 | 1.13 | 0.931 | 1.08 | 0.373 | 0.798 | 0.948 | 1.13
pThr fixed | 0.338 | 0.662 | 0.663 | 0.75 | 0.373 | 0.941 | 1.23 | 1.23 | 1.41
pTyr fixed | 0.323 | 0.38 | 1.01 | 1.08 | 0.444 | 0.686 | 1.29 | 1.37 | 1.25

MYO3B, construct: aa1-326 (from UniProt Q8WXR4)
relative phosphorylation
Conditions | at +1 | at +2 | at +3 | at +4 | at -1 | at -2 | at -3 | at -4 | at -5
A fixed | 0.835 | 0.824 | 0.907 | 0.917 | 1.11 | 0.997 | 1.06 | 0.977 | 1.15
D fixed | 0.195 | 0.346 | 0.286 | 0.408 | 0.679 | 0.489 | 0.538 | 0.954 | 0.81
E fixed | 0.182 | 0.272 | 0.222 | 0.412 | 0.633 | 0.316 | 0.576 | 0.933 | 0.843
F fixed | 0.583 | 0.641 | 0.831 | 0.682 | 0.908 | 1.44 | 1.07 | 1.05 | 1.01
G fixed | 0.936 | 0.951 | 1.04 | 1.24 | 1.61 | 1.32 | 1.8 | 1.33 | 1.38
H fixed | 0.628 | 1.1 | 1.01 | 1.03 | 1.18 | 1.25 | 1.13 | 1.14 | 1.08
I fixed | 1.1 | 0.515 | 0.595 | 0.683 | 0.38 | 0.578 | 0.728 | 0.783 | 0.787
K fixed | 2.3 | 2.56 | 2.29 | 2.28 | 0.958 | 0.787 | 0.946 | 1.04 | 1.14
L fixed | 1.53 | 0.724 | 0.838 | 0.663 | 0.945 | 0.713 | 0.901 | 0.82 | 0.757
M fixed | 1.57 | 0.756 | 0.71 | 0.714 | 1.33 | 0.857 | 1.11 | 0.939 | 0.947
N fixed | 0.754 | 0.835 | 0.911 | 1.03 | 1.28 | 0.95 | 0.939 | 0.96 | 0.899
P fixed | 0.276 | 0.96 | 1.18 | 1.05 | 0.601 | 0.622 | 0.891 | 0.953 | 1.27
Q fixed | 1.08 | 0.752 | 0.736 | 0.988 | 1.04 | 0.816 | 0.823 | 0.946 | 0.856
R fixed | 2.66 | 3.56 | 3.06 | 2.38 | 1.58 | 1.72 | 1.18 | 1.13 | 1.15
V fixed | 0.809 | 0.552 | 0.671 | 0.702 | 0.495 | 0.597 | 0.582 | 0.769 | 0.879
W fixed | 0.791 | 0.737 | 0.807 | 1 | 0.856 | 1.52 | 1.28 | 1.17 | 0.993
Y fixed | 0.781 | 0.919 | 0.902 | 0.826 | 1.41 | 2.03 | 1.44 | 1.1 | 1.04
pThr fixed | 0.449 | 0.389 | 0.599 | 0.309 | 0.335 | 0.494 | 0.678 | 0.852 | 0.895
pTyr fixed | 0.308 | 0.266 | 0.551 | 0.392 | 1.24 | 0.596 | 0.873 | 0.888 | 1.1

CDK16, construct: aa107-end (from UniProt Q00536)
relative phosphorylation
Conditions | at +1 | at +2 | at +3 | at +4 | at -1 | at -2 | at -3 | at -4 | at -5
A fixed | 0.223 | 0.675 | 0.758 | 0.72 | 1.18 | 1.28 | 1.24 | 0.912 | 1.03
D fixed | 0.152 | 0.587 | 0.335 | 0.457 | 0.539 | 0.439 | 0.692 | 0.863 | 0.745
E fixed | 0.15 | 0.385 | 0.316 | 0.305 | 0.491 | 0.464 | 0.839 | 0.817 | 0.699
F fixed | 0.155 | 0.368 | 1.03 | 0.593 | 0.499 | 0.512 | 0.478 | 0.455 | 0.542
G fixed | 0.947 | 0.572 | 0.702 | 1.38 | 2.12 | 0.887 | 2.02 | 0.951 | 0.854
H fixed | 0.218 | 1.25 | 0.82 | 1.16 | 0.92 | 0.797 | 1.27 | 1.08 | 1.68
I fixed | 0.147 | 0.455 | 0.842 | 0.588 | 0.26 | 0.834 | 0.433 | 0.852 | 0.625
K fixed | 0.253 | 3.26 | 0.872 | 2.54 | 1.37 | 0.617 | 0.915 | 2.31 | 2.51
L fixed | 0.177 | 1.05 | 2.59 | 0.679 | 0.582 | 1.18 | 0.93 | 1.15 | 1.16
M fixed | 0.168 | 0.663 | 1.97 | 0.757 | 0.722 | 1.12 | 0.666 | 0.755 | 0.722
N fixed | 0.225 | 1.17 | 0.964 | 1.09 | 1.16 | 1.08 | 1.19 | 1.78 | 1.42
P fixed | 13.1 | 0.696 | 1.45 | 0.842 | 1.77 | 3.72 | 1.93 | 1.11 | 0.908
Q fixed | 0.246 | 1.26 | 0.973 | 1.06 | 1.28 | 0.988 | 1.06 | 1.01 | 0.95
R fixed | 0.23 | 2.63 | 0.996 | 2.89 | 1.67 | 0.715 | 0.973 | 1.02 | 1.08
V fixed | 0.177 | 0.676 | 0.937 | 0.66 | 0.399 | 0.941 | 0.643 | 0.598 | 0.657
W fixed | 0.221 | 0.702 | 0.877 | 0.687 | 0.991 | 0.83 | 0.85 | 0.675 | 0.902
Y fixed | 0.17 | 0.608 | 0.564 | 0.587 | 1.04 | 0.588 | 0.871 | 0.653 | 0.509
pThr fixed | 0.435 | 0.648 | 0.998 | 0.332 | 0.397 | 0.764 | 0.87 | 0.767 | 0.657
pTyr fixed | 0.801 | 0.513 | 1.11 | 0.42 | 0.49 | 0.698 | 0.925 | 0.584 | 0.723

CAMK2G, construct: aa24-334 (from UniProt Q13555)
relative phosphorylation
Conditions | at +1 | at +2 | at +3 | at +4 | at -1 | at -2 | at -3 | at -4 | at -5
A fixed | 0.737 | 0.749 | 0.902 | 0.943 | 0.933 | 0.991 | 0.897 | 0.98 | 1
D fixed | 0.862 | 3.95 | 1.64 | 1.87 | 1.41 | 1.02 | 0.898 | 1.07 | 1.13
E fixed | 0.878 | 2.06 | 2.04 | 1.99 | 1.26 | 0.887 | 0.9 | 1.04 | 1.12
F fixed | 2.53 | 0.723 | 0.818 | 0.816 | 0.913 | 1.25 | 1.27 | 0.987 | 0.991
G fixed | 0.709 | 0.692 | 0.983 | 1.02 | 0.953 | 1.07 | 0.829 | 0.974 | 0.971
H fixed | 0.814 | 0.784 | 0.979 | 0.903 | 0.897 | 1.25 | 1.06 | 1.14 | 1.19
I fixed | 1.14 | 0.712 | 0.879 | 0.814 | 0.855 | 0.775 | 0.918 | 0.924 | 0.855
K fixed | 0.824 | 0.705 | 0.863 | 0.785 | 1.1 | 0.889 | 0.945 | 0.946 | 1.09
L fixed | 1.01 | 0.675 | 0.907 | 0.812 | 0.965 | 0.795 | 0.916 | 0.894 | 0.953
M fixed | 1.43 | 0.696 | 0.855 | 0.785 | 0.944 | 0.841 | 1.04 | 0.903 | 0.871
N fixed | 0.813 | 0.92 | 0.943 | 0.91 | 1.05 | 1.17 | 1.04 | 1.07 | 1.02
P fixed | 0.675 | 0.64 | 0.708 | 0.948 | 0.78 | 0.705 | 0.871 | 0.896 | 0.864
Q fixed | 0.959 | 0.773 | 0.98 | 0.911 | 1.07 | 1 | 0.982 | 0.96 | 0.916
R fixed | 0.841 | 0.72 | 0.833 | 0.764 | 1.11 | 0.963 | 1.14 | 0.906 | 1
V fixed | 1.02 | 0.729 | 0.888 | 0.85 | 0.912 | 0.805 | 0.829 | 0.883 | 0.963
W fixed | 0.776 | 0.74 | 0.877 | 1.01 | 0.919 | 1.41 | 1.33 | 1.37 | 1.13
Y fixed | 0.984 | 0.728 | 0.907 | 0.881 | 0.933 | 1.18 | 1.14 | 1.05 | 0.938
pThr fixed | 1.09 | 1.16 | 1.78 | 2.53 | 1.25 | 1 | 0.985 | 1.11 | 1
pTyr fixed | 1.23 | 4.79 | 1.69 | 2.15 | 1.63 | 1.11 | 1.11 | 1.1 | 1.02
